Experimental data: patent US20120201781A1 (AbbVie / Abbott, published 2012)

T1: recombinant human IL-1α (human, UniProt P01583 113-271)
T1 construct: Purified recombinant protein bought from R&D Systems; also called hIL-1α; rhIL-1α
T1 sequence: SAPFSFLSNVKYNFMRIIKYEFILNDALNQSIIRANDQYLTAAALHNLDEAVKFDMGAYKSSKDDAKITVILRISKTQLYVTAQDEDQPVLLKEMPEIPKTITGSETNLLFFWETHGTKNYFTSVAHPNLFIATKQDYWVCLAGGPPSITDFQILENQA

B1: hIL-1α/β DVD2-Ig binding protein (bispecific antibody, human IgG1, kappa)
heavy: not shown
light: NIVLTQSPASLAVSLGQRATISCRASESVDSYGNSYMHWYQQKPGQPPKLLIYLASNLESGVPARFSGSGSRTDFTLTIDPVEADDAATYYCQQNNEDPFTFGSGTKLEIKRADAAPNIQMTQTTSSLSASLGDRVTISCRASQDISNCLNWYQQKPDGTVKLLIYYTSRLHSGVPSRFSGSGSGTDYSLTISNLEQEDIATYFCQQGKTLPYAFGGGTKLEINRTVAAPSVFIFPPSDEQLKSGTASVVCLLNNFYPREAKVQWKVDNALQSGNSQESVTEQDSKDSTYSLSSTLTLSKADYEKHKVYACEVTHQGLSSPVTKSFNRGEC
notes: 13F5.G5 V - linker (heavy AKTTPP, light ADAAP) - 3D12.E3 V, human Cγ1/Cκ
B2: hIL-1α/β DVD1-Ig binding protein (bispecific antibody, human IgG1, kappa)
heavy: not shown
light: NIVLTQSPASLAVSLGQRATISCRASESVDSYGNSYMHWYQQKPGQPPKLLIYLASNLESGVPARFSGSGSRTDFTLTIDPVEADDAATYYCQQNNEDPFTFGSGTKLEIKRNIQMTQTTSSLSASLGDRVTISCRASQDISNCLNWYQQKPDGTVKLLIYYTSRLHSGVPSRFSGSGSGTDYSLTISNLEQEDIATYFCQQGKTLPYAFGGGTKLEINRRTVAAPSVFIFPPSDEQLKSGTASVVCLLNNFYPREAKVQWKVDNALQSGNSQESVTEQDSKDSTYSLSSTLTLSKADYEKHKVYACEVTHQGLSSPVTKSFNRGEC
notes: 13F5.G5 variable domains fused directly (no linker) to the N-terminus of 3D12.E3 variable domains, human Cγ1/Cκ
B3: murine monoclonal antibody 13F5.G5 (antibody, V domains shown)
VH: QVQLQQSGAELVRPGSSVKISCKASGYAFSSYWMNWVKQRPGQGLEWIGQIYPGDGDTNYNGKFKGKATLTADKSSSTSYMQLSGLTSEDSAMYFCVRFPTGNDYYAMDYWGQGTSVTVSS
VL: NIVLTQSPASLAVSLGQRATISCRASESVDSYGNSYMHWYQQKPGQPPKLLIYLASNLESGVPARFSGSGSRTDFTLTIDPVEADDAATYYCQQNNEDPFTFGSGTKLEIKR
notes: Murine hybridoma mAb, anti-hIL-1β
B4: murine monoclonal antibody 3D12.E3 (antibody, V domains shown)
VH: QIQLVQSGPELKKPGETVKISCKASGYTFRNYGMNWVKQAPGKDLKRMAWINTYTGESTYADDFKGRFAFSLETSASTAYLQINNLKNEDTATYFCARGIYYYGSSYAMDYWGQGTSVTVSS
VL: NIQMTQTTSSLSASLGDRVTISCRASQDISNCLNWYQQKPDGTVKLLIYYTSRLHSGVPSRFSGSGSGTDYSLTISNLEQEDIATYFCQQGKTLPYAFGGGTKLEINR
notes: Murine hybridoma mAb, anti-hIL-1α

Assays:
[1] = target: T1, recombinant human IL-1α; experiment: SPR (Biacore)
Method: (§1) The equilibrium dissociation constant (M) of the reaction between DVD-Ig molecule and rhIL1α/β was then calculated from the kinetic rate constants by the following formula: KD=koff/kon. Aliquots of rhIL1α/β samples were also simultaneously injected over a blank reference and reaction CM surface to record and subtract any nonspecific binding background to eliminate the majority of the refractive index change and injection noise. Surfaces were regenerated with two subsequent […] injections of 10 mM Glycine (pH 1.5) at a flow rate of […]. The anti-Fc antibody immobilized surfaces were completely regenerated and retained their full capture capacity over twelve cycles. The apparent stoichiometry of the captured DVD-Ig-rhIL1α/β complex was calculated under saturating binding conditions (steady-state equilibrium) using the following formula: […]
(§2) The affinity of the two DVD-Ig binding proteins to hIL-1 as compared to the affinity of chimeric antibodies to hIL-1 was similar as indicated by the evaluation of the stoichiometry to IL-1. Both chimeric antibodies, being bivalent monospecific, bound to IL-1α and IL-1β on Biacore with a stoichiometry of 1.6 and 1.7, respectively. This is common for an IgG due to inter-molecular interference when antibodies are immobilized densely on the Biacore sense chip resulting in stoichiometry being in the range from 1.5 to 2.0.

[2] = target: T2, recombinant human IL-1β (human, UniProt P01584 117-269); experiment: SPR (Biacore)
T2 construct: Recombinant protein; also called hIL-1β; rhIL-1β
Method: as §1, §2

[3] = target: T1, recombinant human IL-1α; experiment: SPR (Biacore), hIL-1α as 2nd antigen after hIL-1β
Method: (§3) In addition, tetravalent dual-specific antigen binding of DVD-Ig binding protein was also analyzed by Biacore (Table 14). DVD-Ig binding protein was first captured via a goat anti-human Fc antibody on the Biacore sensor chip, and the first antigen was injected and a binding signal observed. As the DVD-Ig binding protein was saturated by the first antigen, the second antigen was then injected and the second signal observed. This was done either by first injecting IL-1β then IL-1α or by first injecting IL-1α followed by IL-1β for DVD2-Ig binding protein. In either sequence, a dual-binding activity was detected. Similar results were obtained for DVD1-Ig binding protein. Thus, each DVD-Ig binding protein was able to bind both antigens simultaneously as a dual-specific tetravalent molecule. […] Upon the injection of the second antigen, while DVD-Ig binding protein was already occupied by the first antigen, the stoichiometry of both DVD-Igs binding protein to the second antigen (i.e., hIL-1α or hIL-1β was between 1.0 and 1.3. Thus, DVD-Ig binding protein was able to bind two IL-1α and two IL-β molecules. DVD-Ig binding protein was first captured via a goat anti-human Fc antibody on the Biacore sensor chip, and the first antigen was injected and a binding signal observed, followed by the injection of the second antigen.

[4] = target: T1, recombinant human IL-1α; experiment: SPR (Biacore), hIL-1α as 1st antigen
Method: as §3

[5] = target: T2, recombinant human IL-1β; experiment: SPR (Biacore), hIL-1β as 2nd antigen after hIL-1α
Method: as §3

[6] = target: T2, recombinant human IL-1β; experiment: SPR (Biacore), hIL-1β as 1st antigen
Method: as §3

[7] = target: T1, recombinant human IL-1α; experiment: SPR (Biacore 3000), binder captured via goat anti-human IgG Fc
Method: (§4) Approximately, 5000 RU of goat anti-human IgG Fcγ fragment specific polyclonal antibody (Pierce Biotechnology Inc, Rockford, Ill.) diluted in 10 mM sodium acetate (pH 4.5) was directly immobilized across a CM5 research grade biosensor chip using a standard amine coupling kit according to manufacturer's instructions and procedures at […]. Unreacted moieties on the biosensor surface were blocked with ethanolamine. Modified carboxymethyl dextran surface in flowcell 2 and 4 was used as a reaction surface. Unmodified carboxymethyl dextran without goat anti-human IgG in flow cell 1 and 3 was used as the reference surface. For kinetic analysis, rate equations derived from the 1:1 Langmuir binding model were fitted simultaneously to association and dissociation phases of all ten injections (using global fit analysis) using the Bioevaluation 4.0.1 software. Purified DVD-Ig samples were diluted in HEPES-buffered saline for capture across goat anti-human IgG Fc specific reaction surfaces and injected over reaction matrices at a flow rate of […]. The association and dissociation rate constants, kon (M-1s-1) and koff (s-1) were determined under a continuous flow rate of 25 ml/minute. […] The equilibrium dissociation constant (M) of the reaction between DVD-Ig molecule and rhIL1α/β was then calculated from the kinetic rate constants by the following formula: KD=koff/kon. Aliquots of rhIL1α/β samples were also simultaneously injected over a blank reference and reaction CM surface to record and subtract any nonspecific binding background to eliminate the majority of the refractive index change and injection noise. Surfaces were regenerated with two subsequent […] injections of 10 mM Glycine (pH 1.5) at a flow rate of […]. The anti-Fc antibody immobilized surfaces were completely regenerated and retained their full capture capacity over twelve cycles. The apparent stoichiometry of the captured DVD-Ig-rhIL1α/β complex was calculated under saturating binding conditions (steady-state equilibrium) using the following formula: […]

[8] = target: T2, recombinant human IL-1β; experiment: as above
Method: as §4

[9] = target: T1, recombinant human IL-1α; experiment: cell-based or functional assay
[10] = target: T2, recombinant human IL-1β; experiment: cell-based or functional assay
[11] = target: T1, recombinant human IL-1α; experiment: cell-based or functional assay; remark: listed apart in the source
[12] = target: T2, recombinant human IL-1β; experiment: cell-based or functional assay; remark: listed apart in the source
[13] = target: T1, recombinant human IL-1α; experiment: SPR (Biacore 3000), saturating binding
Method: as §1, with “The association and dissociation rate constants, kon (M-1s-1) and koff (s-1) were determined under a continuous flow rate of 25 ml/minute. […] The equilibrium” for “The equilibrium”
as §2

[14] = target: T2, recombinant human IL-1β; experiment: SPR (Biacore 3000), saturating binding
Method: as §1, with “The association and dissociation rate constants, kon (M-1s-1) and koff (s-1) were determined under a continuous flow rate of 25 ml/minute. […] The equilibrium” for “The equilibrium”
as §2

[15] = target: T2, recombinant human IL-1β; experiment: SPR (Biacore); remark: listed apart in the source
[16] = target: T2, recombinant human IL-1β; experiment: SPR (Biacore), mAb captured via goat anti-mouse IgG
[17] = target: T2, recombinant human IL-1β; experiment: SPR (Biacore), saturating binding
[18] = target: T2, recombinant human IL-1β; experiment: cell-based or functional assay; remark: listed apart in the source
[19] = target: T1, recombinant human IL-1α; experiment: SPR (Biacore); remark: listed apart in the source
[20] = target: T1, recombinant human IL-1α; experiment: SPR (Biacore), mAb captured via goat anti-mouse IgG
[21] = target: T1, recombinant human IL-1α; experiment: SPR (Biacore), saturating binding
[22] = target: T1, recombinant human IL-1α; experiment: cell-based or functional assay; remark: listed apart in the source

Row | fold lower affinity than the chimeric 3D12.E3 antibody [1] [fold] | Stoichiometry hIL-1α:DVD-Ig [3] | Stoichiometry hIL-1α:DVD-Ig [4] | Stoichiometry hIL-1β:DVD-Ig [5] | Stoichiometry hIL-1β:DVD-Ig [6] | Kd [7] [nM] | koff [7] [s⁻¹] | kon [7] [M⁻¹ s⁻¹] | Kd [8] [nM] | koff [8] [s⁻¹] | kon [8] [M⁻¹ s⁻¹] | Potency (IC50) M, MRC-5 bioassay [9] [nM] | Potency (IC50) M, MRC-5 bioassay [10] [nM] | neutralizing activity in MRC-5 bioassay, fold less than the chimeric antibodies [11] [fold] | Stoichiometry [13] | Stoichiometry [14] | other results | Binder
1 | 3 | 1.2 | 1.8 | 1.3 | 1.6 | 3.42 | 0.000252 | 73500 | 0.798 | 0.00095 | 1.19e+06 | 2.9 | 1.6 | 3 | 2 | 1.8 | fold higher affinity than DVD1-Ig binding protein [2]: 3 fold; neutralizing activity in MRC-5 bioassay, fold higher than DVD1-Ig [12]: 3 fold | B1
2 | 2 to 3 | 1.1 | 2.3 | 1 | 1.5 | 2.83 | 0.000105 | 37000 | 2.6 | 0.00159 | 609000 | 2.3 | 3.1 | 3 | 1.8 | 1.5 | – | B2
3 | – | – | – | – | – | – | – | – | – | – | – | – | 0.6 | – | – | – | Kd [15]: 0.291 nM; koff [15]: 0.000621 s⁻¹; kon [15]: 2.13e+06 M⁻¹ s⁻¹; Kd [16]: 0.291 nM; Stoichiometry [17]: 1.8; IC50 (M), MRC-5 bioassay (inhibition of IL-8 production) [18]: 6e-10 M | B3
4 | – | – | – | – | – | – | – | – | – | – | – | 0.67 | – | – | – | – | Kd [19]: 1.11 nM; koff [19]: 0.000713 s⁻¹; kon [19]: 643000 M⁻¹ s⁻¹; Kd [20]: 1.11 nM; Stoichiometry [21]: 2; IC50 (M), MRC-5 bioassay (inhibition of IL-8 production) [22]: 6.7e-10 M | B4
